In patent publication US20120027773A1:

What was measured:
[1] = target: human wild-type RON (cell surface) (human) (UniProt Q04912); test: FACS, 10 ug/ml, PC3 cells, 4 C; negative control
[2] = target: delta 160 RON variant (cell surface) (human) (UniProt Q04912); test: FACS, 10 ug/ml, HT-29 cells, 4 C; negative control

PC3 % cell surface binding [1]: 5.5% | HT-29 % cell surface binding [2]: 5.62%
Substance: murine IgG control (antibody)
